Results from the nanobody polyreactivity screen of Harvey et al. (2022).

Experiment: yeast display, Sf9 membrane polyspecificity reagent, FACS + sequencing; frameworks hold sequencing errors
How it was run: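 Galactose-induced (36–48 hours) yeast carrying a synthetic nanobody display library were exposed to 10% biotinylated, detergent-solubilized Sf9 membrane reagent at 4 °C for 1 hour. FACS followed streptavidin microbead enrichment, using low and high (top ~1%) gates for expression (anti-HA) and reagent binding (streptavidin). Colony PCR, MiSeq 2 × 250 sequencing and CDR-length filtering followed. Labels for polyreactivity reflect the gate of origin.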

Sequence | polyreactivity (PSR sort gate)
QVQLVESGGGLVQAGGSLRLSCAASGSTFTRYDMGWYRQAPGKERELVAAISKSGGSTYYADSVKGRFTISRDNAKNTVYLQMNSLKPEDTAVYYCARGSTKYHIYSLDYWGQGTQVTVSS | low polyreactivity
QVQLVESGGGLVQAGGSLRLSCAASGSTFTSSAMGWYRQAPGKERELVAAISKSGGSTYYADSVKGRFTLSRDNAKNTVYLQMNSLKPEDTAVYYCAARYNVRSYSTSRFDYWGQGTQVTVSS | low polyreactivity
QVQLVESGGGLVQAGGSLRLSCAASGSTFTSYAMGWYRQAPGKERELVAAINYSGGSTYYADSVKGRFTISRDNAKNTVYLQMNSLKPEDTAVYYCAADGYIRQYVTYYYWGQGTQVTVSS | low polyreactivity
QVQLVESGGGLVQAGGSLRLSCAASGSTFTSYAMGWYRQAPGKERELVAGITSRGTSTYYADSVKGRFTISRDNAKNTVYLQMNSLKPEDTAVYYCARDPYQPKVSGRLFLRYDYWGQGTQVTVSS | high polyreactivity
QVQLVESGGGLVQAGGSLRLSCAASGSTFTSYAMGWYRQAPGKERELVATISKISGSTYYADSVKGRFTISRDNAKNTVYLQMNSLKPEDTAVYYCAAKQGWVQSSILWYRAYGYWGQGTQVTVSS | high polyreactivity
QVQLVESGGGLVQAGGSLRLSCAASGSTFTTNAMGWYIQAPGKERELVASITWSGGGTNYADSVKGRFTISRDNAKNTVYLQMNSLKPEDTAVYYCAADYDDSHLRSDYWGQGTQVTVSS | low polyreactivity
QVQLVESGGGLVQAGGSLRLSCAASGSTFTTYAMGWYRQAPGKERELVAVITDSRGTYYADSVKGRFTISRDNAKNTVYLQMHSLKPEDTALYYCNRVFPPTDYEFDSWGQGTQVTVSS | low polyreactivity
QVQLVESGGGLVQAGGSLRLSCAASGSTFTVNAMGWYRQAPGKERELVAAINGSGDITYYADSVTGRFTISRDNAKNTVYLQMNSLKPEDTAVYYCAADQGVPSTYDYWGQGTQVTVSS | low polyreactivity
QVQLVESGGGLVQAGGSLRLSCAASGSTFTVNDMGWYRQAPGKERELVAAITQRDGRTFYADSVKGRFTISRDNAQNTVYLLMNSLKPEDTAVYYCAADYGWYTYGDYDYWGQGTQVTVSS | low polyreactivity
QVQLVESGGGLVQAGGSLRLSCAASGSTFTVYAMGWYRQAPGKERELVAAIRDGSSTNYADSVKGRFTISRDNAKNTVYLQMNSLKPEDTAVYYCNAPYPPTGYGDDDYWGQGTQVTVSS | low polyreactivity
QVQLVESGGGLVQAGGSLRLSCAASGSTFTVYAMGWYRQAPGKERELVAAISWGGGSTNYADSVKGRFTISRDNAKNTVYLQMNSLKPEDTAVYYCNADIDDIIGSWGDYWGQGTQVTVSS | low polyreactivity
QVQLVESGGGLVQAGGSLRLSCAASGSTFTWNVMGWYREAPGKERELVAAIDGSGGDTYYADSVKGRFTISRDHAKNTVYLQMNSLNPEDTAVYYCAAEDAAAYSENDYWGQGTQVTVSS | low polyreactivity
QVQLVESGGGLVQAGGSLRLSCAASGSTFTWYAMGWNRQAPGKERELVADITWRDGSTYYADSVKGRFTISRDNAKNTVYLQMNSLKPEDTAVYYCNARRDYDMDWGQGTQVTVSS | high polyreactivity
QVQLVESGGGLVQAGGSLRLSCAASGSTFTWYAMGWYRQAPGKERELVAAISWSGDSTYYADSVKGRFTISRDNAKNTVYLQMNSLKPEDTAVYYCAAENVYGYDYWGQGTQVTVSS | high polyreactivity
QVQLVESGGGLVQAGGSLRLSCAASGSTFTWYAMGWYRQAPGKERELVARINFSGGSTYADSVKGRFTISRDNAKNTVYLQMNSLKPEDTAVYYCAAVYPGRKARRKYDYWGQGTQVTVSS | low polyreactivity
QVQLVESGGGLVQAGGSLRLSCAASGSTFTWYAMGWYRQAPWKERELVADISYGGGSTYYADSVKGRFTISRDNAKNTVYLQMNSLKPEDTEVYYCAAASYLYLYLLEDYWGQGTQVTVSS | low polyreactivity
QVQLVESGGGLVQAGGSLRLSCAASGSTFTWYGMGWYRQAPGKETELVAAISGSGGRTYYADSVKGRFTISRDNAKNTVYFQMNSLKPEDTAVYYCNADPANPFGTEFEYWGQGTQVTVSS | high polyreactivity
QVQLVESGGGLVQAGGSLRLSCAASGSTFTYNAMGWYRQAPGKERELVASISSGTTTYYADSVKGRFTISRDNAKNTVYLQMNSLKPEDTAVYYCNADYFDYSRPRYDYWGQGTQVTVSS | low polyreactivity
QVQLVESGGGLVQAGGSLRLSCAASGSTFTYNTMGWYRQAPGQERELVAAISSGGSTYYADSVKGRFTFSRDNAKNTVSLQMNSLKPEDTAVYYCAARSRYGESPGYYWGQGTQVTVSS | high polyreactivity
QVQLVESGGGLVQAGGSLRLSCAASGSTFTYYAMGWYRQAPGKERELFAAITFRGDSTYYADSVKGRFTISRDNAKNTVYLQMNILKPEDTAVYYCNADSISSTYYDEDYWGQGTQVTVSS | low polyreactivity
QVQLVESGGGLVQAGGSLRLSCAASGSTFTYYAMGWYRQAPGKERELVAAISNSGTSTYYADSVKGRFTISRDNAKNTVYLQMNSLKPEDTAVYYCNAYSDLFGSYTDLGEYDYWGQGTQVTVSS | low polyreactivity
QVQLVESGGGLVQAGGSLRLSCAASGSTFTYYAMGWYRQAPGKERELVAAISRRGGSTYYADSVKGRFTISRDNAKNTVYLQMNSLKPEDTAVYYCNARLKPLWGGRYDYWGQGTQVTVSS | high polyreactivity
QVQLVESGGGLVQAGGSLRLSCAASGSTFTYYAMGWYRQAPGKERELVAAISRRGGSTYYADSVKGRFTISRDNAKNTVYLQMNSLKPEDTAVYYCNVVIYSYGINGRYDYWGQGTQVTVSS | high polyreactivity
QVQLVESGGGLVQAGGSLRLSCAASGSTFTYYAMGWYRQAPGKERELVAAITSRGGITYYADSVKGRFTISRDNAKNTVYLQMNSLKPEDTAVYYCNAYSQRYGYYYWGQGTQVTVSS | high polyreactivity
QVQLVESGGGLVQAGGSLRLSCAASGSTFTYYAMGWYRQAPGKERELVAAITWSGVSTYYADSVKGRFTISRDNAKNTVYLQMNSLKPEDTAVYYCANGYSYGWWGGFGYWGQGTQVTVSS | high polyreactivity
QVQLVESGGGLVQAGGSLRLSCAASGSTFTYYAMGWYRQSPGKERELVAAISWRGGSTYYADSVKGRFTISRDNAKNTVYLQMNSLKPEDNAVYYCAASRTFYRAVTQTGSPMDYWGQGTQVTVSS | high polyreactivity
QVQLVESGGGLVQAGGSLRLSCAASGSTFVANAMGWYRQAPGKERELVAAIDYDDGGTYYADSVKGRFTISRDNAKNTVYLQMNSLKPEDTAVYYCAADYGDIGAVLHYPVELGYWGQGTQVTVSS | low polyreactivity
QVQLVESGGGLVQAGGSLRLSCAASGSTFVANTMGWYRQAPGKERELVATIRRSGGSTYYADSVKGRFTISRDNAKNTVYLQMNSLKPEDTAVYYCAKDSRWPSYRGMDYWGQGTQVTVSS | low polyreactivity
QVQLVESGGGLVQAGGSLRLSCAASGSTFVAYAMGSYRQAPGKERELVAAISASGVRTYYADSVKGRFTISRDNAKNTVYLQMNSLKPEDTAVYYCAATVFRKYRYGYWGQGTQVTVSS | high polyreactivity
QVQLVESGGGLVQAGGSLRLSCAASGSTFVDNAMGWYRQAPGKEREFVAAIDWSGGSTFYADSVKGRFTISRDNAKNTVYLQMNSLKPEDTAVYYCNADSYPQGDYWGQGSQVTVSS | low polyreactivity
